Experiment [1] addresses IL-15Rβγc receptors on 32Dβ cells (hIL-15Rβ and murine γC chains) (human; mouse) (UniProt P14784). Kind of experiment: cell-based or functional assay.
In experiment [2] the target is OVA (aa257-264) peptide/H-2Kb complex, soluble (HRP tetramer or biotinylated complex on a streptavidin chip) (mouse) (UniProt P01901). Kind of experiment: SPR (BIAcore 2000), biotinylated pMHCI on streptavidin chip. Background: SPR reads the build-up and loss of mass on a sensor chip optically.
Experiment [3] has the same target. Kind of experiment: SPR (BIAcore 2000), biotinylated pMHCI on streptavidin chip, apparent KD.
The target of experiment [4] is T1, IL-15Rβγc receptors on 32Dβ cells (hIL-15Rβ and murine γC chains) (human; mouse, UniProt P14784 27-551; P34902 23-369).
T1 sequence (looked up) 1: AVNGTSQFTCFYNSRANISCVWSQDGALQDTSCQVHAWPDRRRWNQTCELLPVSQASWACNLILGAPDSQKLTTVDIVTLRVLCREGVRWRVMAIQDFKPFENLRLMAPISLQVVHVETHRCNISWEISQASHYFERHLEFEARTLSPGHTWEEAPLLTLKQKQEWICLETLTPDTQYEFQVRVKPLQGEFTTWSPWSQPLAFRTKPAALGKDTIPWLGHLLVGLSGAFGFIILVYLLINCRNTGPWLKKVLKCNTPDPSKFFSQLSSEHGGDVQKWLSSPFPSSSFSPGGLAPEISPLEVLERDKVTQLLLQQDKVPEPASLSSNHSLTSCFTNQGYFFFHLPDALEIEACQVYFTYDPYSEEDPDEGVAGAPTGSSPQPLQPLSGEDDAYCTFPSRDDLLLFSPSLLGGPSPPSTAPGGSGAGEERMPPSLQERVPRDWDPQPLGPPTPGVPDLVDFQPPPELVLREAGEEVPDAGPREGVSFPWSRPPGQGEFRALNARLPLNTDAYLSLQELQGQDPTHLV
T1 sequence (looked up) 2: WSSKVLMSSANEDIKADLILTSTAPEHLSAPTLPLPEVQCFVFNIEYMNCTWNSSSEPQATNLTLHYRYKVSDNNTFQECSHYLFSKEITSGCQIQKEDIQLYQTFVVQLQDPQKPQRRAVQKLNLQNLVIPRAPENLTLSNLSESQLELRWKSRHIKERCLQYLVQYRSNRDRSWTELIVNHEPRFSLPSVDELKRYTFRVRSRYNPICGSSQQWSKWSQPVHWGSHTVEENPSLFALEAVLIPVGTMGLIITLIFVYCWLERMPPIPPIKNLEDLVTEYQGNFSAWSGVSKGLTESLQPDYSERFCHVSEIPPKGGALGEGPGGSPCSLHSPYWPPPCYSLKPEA
Kind of experiment: cell-based or functional assay.

Chain of OVA (aa257-264) peptide/H-2Kb complex, soluble (HRP tetramer or biotinylated complex on a streptavidin chip) (mouse) (P01901 22-305, one chain of several): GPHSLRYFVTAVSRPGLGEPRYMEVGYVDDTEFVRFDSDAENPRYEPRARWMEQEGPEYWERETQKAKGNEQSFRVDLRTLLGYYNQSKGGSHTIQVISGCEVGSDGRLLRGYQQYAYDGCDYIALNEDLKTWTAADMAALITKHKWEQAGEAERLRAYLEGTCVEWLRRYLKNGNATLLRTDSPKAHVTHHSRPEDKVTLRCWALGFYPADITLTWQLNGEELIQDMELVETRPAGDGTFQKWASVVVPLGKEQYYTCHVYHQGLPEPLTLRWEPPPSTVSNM

Turning to “c264scTCR/hIL-15 fusion protein (from UniProt P40933 49-162)”, in experiment [1], the EC50, 32Dβ cell proliferation came to 0.3 nM. On to “OT1scTCR/scCD8 heterodimer (OT1scTCR/hIL-15:scCD8/hIL-15RαSu/birA complex) (from UniProt P40933 49-162; P01731 28-196; P10300 22-175)”, for which, in experiment [2], the Kd turned out to be 2600 nM. Molecule “c264scTCR dimer (c264scTCR/hIL-15:c264scTCR/hIL-15RαSu/birA complex) (from UniProt P40933 49-162)” yielded an EC50, 32Dβ cell proliferation in experiment [1] of 0.3 nM. Take “OT1scTCR dimer (OT1scTCR/hIL-15:OT1scTCR/hIL-15RαSu/birA complex) (from UniProt P40933 49-162)”: the Kd in experiment [3] was 30000 nM.

B1: IL-15N72D:IL-15RαSu/Fc complex (Alt-803), co-expressed and purified (Fc fusion)
chain 1: PEAAGG
chain 2: PELLGG
With B1, the “EC50, 32Dβ cell proliferation” value in experiment [4] was found to be 0.0156 nM.

B2: in vitro assembled IL-15N72D:IL-15RαSu/Fc complex (IL-15N72D:IL-15RαSu/Fc IVA) (Fc fusion)
chain 1: PEAAGG
chain 2: PELLGG
Take B2: the “EC50, 32Dβ cell proliferation” value in experiment [4] was 0.0158 nM.

The values are drawn from patent US20190023766A1 (published 2019).
